Assay results: patent US7465453B2, “Polypeptide fragments of CKLF1” (Peking University, priority 2004, dated 2008)
Ends that are not written are not given here.

Columns and labels:
Assay type in all cases: cell-based
[1] = target: T1, CCR4 (Homo sapiens, UniProt P51679); assay: Chemotaxis assay (48-well microchemotaxis chamber) of HEK293 cells transfected with CCR4
T1 construct: The cDNA fragments covering the open reading frames for various chemokine receptors were obtained as follows; expressed in transfected cells; host or cells: HEK293 (transient, electroporation)
T1 sequence (P51679 1-360): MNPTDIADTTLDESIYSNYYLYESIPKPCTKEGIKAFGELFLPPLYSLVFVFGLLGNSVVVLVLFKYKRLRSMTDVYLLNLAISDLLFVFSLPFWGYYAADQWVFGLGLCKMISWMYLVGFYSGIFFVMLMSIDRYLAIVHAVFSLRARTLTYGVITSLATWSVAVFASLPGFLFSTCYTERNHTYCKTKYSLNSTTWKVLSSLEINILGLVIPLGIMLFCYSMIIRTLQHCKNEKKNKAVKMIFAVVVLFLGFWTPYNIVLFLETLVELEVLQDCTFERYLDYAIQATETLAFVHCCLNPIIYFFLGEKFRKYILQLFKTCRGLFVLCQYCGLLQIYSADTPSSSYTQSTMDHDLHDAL
Procedure: (§1) HEK293 cells were grown in RPMI 1640 supplemented with 10% heat-inactivated FBS, penicillin (100 U/ml) and streptomycin (100 μg/ml). Every 4×10^6 HEK293 cells in 400 μl were transiently transfected by electroporation with 15 μg of the expression plasmid at 120 V, 20 ms using an electric pulse generator (Electro Square Porator ECM 830, BTX, San Diego, Calif.), and calcium mobilization assay and chemotaxis assays were performed 48 hours later.
(§2) The chemotaxis assay was performed using a 48-well microchemotaxis chamber (Neutroprobe; Cabin John, Md., U.S.A.). Chemoattractants were diluted in HEPES-buffered RPMI 1640 medium supplemented with 0.1% BSA and placed in the lower wells (28 μl/well). HEK293 cells transfected with pcDI-CCR4, -CCR5 were resuspended in the same medium at 2×10^6 cells/ml and added to the upper wells (50 μl/well), which were separated from the lower wells by a polyvinylpyrrolidone-free polycarbonate filter with 8-μm pores. The chamber was incubated for 2 hours at 37° C. in 5% CO2 and 95% air. Filters were removed from the chamber, washed, fixed, and stained with Three Step Stain Set. Cells that migrated were counted in 5 randomly selected high power fields (400×) per well. The chemotactic index (CI) was calculated from the number of cells that migrated to the control. Significant chemotaxis was defined as CI>2. In some experiments, cells were pretreated with TARC, RANTES, purified CKLF-myc protein or secreted CKLF1 peptides for 30 min. at 37° C., or 100 ng/ml PTX (ALEXIS Biochemicals Corporation) for 6 hours at 37° C. prior to subsequent stimulations.

[2] = test system: U937 cells; assay: Chemotaxis of U937 cells; settings: for migration (chemotaxis) of U937 cells: C19, C27, RANTES: U937 cells stimulated by 30 ng/ml IFN-γ
Procedure: The chemotaxis assay was performed using a 48-well microchemotaxis chamber (Neutroprobe, Cabin John, Md., U.S.A.). U937 cells were stimulated by 30 ng/ml IFN-γ for 4 days because IFN-γ could increase the expression of chemokine receptors CCR1, CCR3, and CCR5 in U937 cells. Then part cells were incubated with mouse anti CCR5 100 μg/ml, and/or rat anti CCR3 10 μg/ml for 30 minutes at 37° C., and corresponding mouse IgG and rat IgG as controls. Chemoattractants RANTES, C19 and C27 were diluted in HEPES-buffered RPMI 1640 medium supplemented with 0.5% BSA to indicate concentration, and placed in the lower wells (28 μl/well). U937 cells stimulated by IFN-γ were resuspended in the same medium at 1×10^6 cells/ml and added to the upper wells (50 μl/well), which were separated from the lower wells by a polyvinylpyrrolidone-free polycarbonate filter with 5-μm pores pre-coated by 0.001% fibronectin. The chamber was incubated for 2 hours at 37° C. in 5% CO2 and 95% air. Filters were removed from the chamber, washed, fixed, and stained with Three Step Stain Set. Cells that migrated were counted in 5 randomly selected high power fields (400×) per well. The group with no Chemoattractants in the lower wells was used as a control. All samples were assayed twice at least. The chemotactic index (CI) was calculated from the number of cells that migrated to the control. Significant chemotaxis was defined as CI>2.

[3] = target: T2, CCR6 (Homo sapiens, UniProt P51684); assay: Internalization of CCR6-EGFP in transiently transfected HEK293 cells; settings: HEK293 cells transfected with pCCR6-EGFP; 37° C., 2 hours
T2 construct: The cDNA fragment covering the open reading frame for CCR6 chemokine receptor was cloned into pEGFP-N1 vector (CLONTECH); expressed in transfected cells; host or cells: HEK293 (transient)
T2 sequence (P51684 1-374): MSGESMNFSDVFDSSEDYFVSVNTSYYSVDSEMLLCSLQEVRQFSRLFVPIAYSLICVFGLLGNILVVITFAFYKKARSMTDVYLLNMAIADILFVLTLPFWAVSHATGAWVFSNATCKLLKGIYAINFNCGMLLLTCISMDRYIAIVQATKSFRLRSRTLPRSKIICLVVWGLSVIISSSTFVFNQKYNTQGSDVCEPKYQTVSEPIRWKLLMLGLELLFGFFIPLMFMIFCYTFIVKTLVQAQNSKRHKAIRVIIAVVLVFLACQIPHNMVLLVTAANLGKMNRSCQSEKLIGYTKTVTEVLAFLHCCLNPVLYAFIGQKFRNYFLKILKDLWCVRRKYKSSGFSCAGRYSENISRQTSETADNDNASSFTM
Procedure: (§3) The cDNA fragment covering the open reading frame for CCR6 chemokine receptor was cloned into pEGFP-N1 vector (CLONTECH). pCCR6-EGFP transiently expressing HEK293 cells were cultured in glass-bottom dishes in RPMI 1640 with 10% FBS. After 16-24 hours of serum starvation, cells were treated with CKLF1 C-terminal peptides or MIP3α at 37° C. for 2 hours. Cells were washed with cold PBS and fixed with 2% paraformaldehyde in PBS. The subcellular localization of CCR6-EGFP protein was visualized using a Leica TCS-NT confocal fluorescence microscope with a 63× oil immersion lens (Wetzler, Heidelberg, Germany). The excitation and emission wavelengths were 488 and 515-540 nm, respectively.

[4] = target: T3, CCR5 (Homo sapiens, UniProt P51681); assay: Chemotaxis assay (48-well microchemotaxis chamber) of HEK293 cells transfected with CCR5
T3 construct: The cDNA fragments covering the open reading frames for various chemokine receptors were obtained as follows; expressed in transfected cells; host or cells: HEK293 (transient, electroporation)
T3 sequence (P51681 whole entry, the tested form may be a part): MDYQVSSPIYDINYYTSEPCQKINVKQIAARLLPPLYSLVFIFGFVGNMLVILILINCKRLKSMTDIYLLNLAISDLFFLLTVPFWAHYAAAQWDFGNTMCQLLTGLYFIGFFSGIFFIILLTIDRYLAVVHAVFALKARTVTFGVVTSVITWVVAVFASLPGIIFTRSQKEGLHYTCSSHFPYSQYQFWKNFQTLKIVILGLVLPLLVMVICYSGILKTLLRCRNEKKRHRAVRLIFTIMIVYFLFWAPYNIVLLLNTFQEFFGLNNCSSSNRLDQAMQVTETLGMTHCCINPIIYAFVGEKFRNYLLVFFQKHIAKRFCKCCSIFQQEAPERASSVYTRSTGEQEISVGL
Procedure: as §1
as §2, with “In some experiments, cells were pretreated with TARC, RANTES, purified CKLF-myc protein or secreted CKLF1 peptides for 30 min. at 37° C., or 100 ng/ml PTX (ALEXIS Biochemicals Corporation) for 6 hours at 37° C. prior to subsequent stimulations.” left out

[5] = target: T3, CCR5; assay: Calcium flux assay in CCR5-transfected HEK293 cells
Excerpt: (§4) The cDNA fragments covering the open reading frames for various chemokine receptors were obtained as follows. CCR4, CCR5 and CCR6 receptors were cloned from a K562 cell cDNA library by polymerase chain reaction (PCR). The primers were designed using the sequences from the following GenBank™ submissions: CCR4 (NM_005508.2), CCR5 (NM_000579) and CCR6 (AY242126). The fragments were cloned into an expression vector pcDI (modified in our lab from pcDNA3 vector (Invitrogen), in which the part between BgI II-Kpn I was replaced by the fragment of pCl vector (Promega) digested with BgI II-Kpn I) or pEGFP-N1 vector (CLONTECH) for efficient expression in HEK293 cells. The sequences coding receptors in expression plasmids were confirmed by DNA sequencing, which is consistent with the sequence submitted in GenBank™.
as §1
(§5) HEK293 cells transfected with pcDI-CCR4 or pcDI-CCR5 were grown in specialized glass-bottom microwell dishes (MatTek Corporation, U.S.A.) and loaded with 10 μM fluo-3/AM in HEPES-buffered saline at 37° C. for 1 hour in the dark. The cells were rinsed with HEPES-buffered saline and stimulated with 167 nM secreted CKLF1 peptides and 100 nM TARC or RANTES, respectively. Fluorescence was monitored at 488 nm (excitation wavelength) and 530 nm (emission wavelength) every 5 second using a Leica TCS-NT confocal fluorescence microscope with a 40× oil immersion lens (Wetzler, Heidelberg, Germany). The measurement was completed at room temperature and each field of cells was selected at random. Images were collected at 5 second intervals for 405 seconds. The images were analyzed for relative fluorescence using Leica confocal software. The relative fluorescence was determined using Microsoft Excel. All calcium flux assays were performed in the presence of extracellular calcium (in the absence of EDTA or EGTA) in the assay buffers. Therefore, both intracellular calcium release and extracellular calcium influx were analyzed.

[6] = target: T1, CCR4; assay: Internalization of CCR4-EGFP in transiently transfected HEK293 cells; settings: HEK293 cells transfected with pCCR4-EGFP; 37° C., 2 hours
Procedure: as §3, with “CCR4” for “CCR6”, “pCCR4-EGFP” for “pCCR6-EGFP”, “16 to 24” for “16-24”, “hours” for “hours of”, “TARC” for “MIP3α”, “CCR4-EGFP” for “CCR6-EGFP”

[7] = target: T1, CCR4; assay: Calcium flux assay in CCR4-transfected HEK293 cells
Excerpt: as §4, §1, §5

## CKLF1-myc protein: recombinant CKLF1-myc protein expressed in Drosophila S2 cells and purified from the supernatant (ALIYRKLLFNPSGPYQKKPVHEKKEVL; not fully specified)
[1]; CCR4-transfected HEK293 cells
  migration (chemotaxis) of transfected cells: could induce the chemotaxis
[2]
  migration (chemotaxis) of U937 cells: can induce the chemotaxis

## MIP3α: chemokine used as comparison treatment in the CCR6-EGFP internalization assay [reference compound]
[3]
  internalization of CCR6-EGFP: internalization of chemokine receptors induced by MIP3α

## RANTES: cognate ligand for CCR5 (peprotech), positive control [reference compound]
[4]; CCR5-transfected HEK293 cells treated with 100 ng/ml PTX at 37° C. for 30 min
  chemotaxis induced after PTX pretreatment: completely abolished by PTX
[4]; HEK293/CCR5, pretreatment 1 mM RANTES or 2 μg/ml C27 or C19, 37° C., 30 min
  desensitization of the receptor to subsequent stimulation with RANTES, C27 or C19 (chemotaxis): could desensitize the receptor
[1]; CCR4-transfected HEK293, pretreatment
  desensitization of the receptor to subsequent stimulation with the purified CKLF1-myc protein (chemotaxis): could desensitize the receptor
[5]; CCR5-transfected HEK293 cells, 167 nM C27 or C19, 100 nM RANTES
  calcium flux: induced calcium flux
[5]; CCR5 transfectants, pretreatment with 100 nM RANTES
  desensitization of the receptor to subsequent stimulation with C27 and C19: desensitized the receptor
[2]
  migration (chemotaxis) of U937 cells: could induce migration
[2]; IFN-γ-stimulated U937 cells, mouse anti CCR5 and/or rat anti CCR3
  chemotactic activity after neutralization of chemokine receptors: obviously inhibited

B1: TARC: cognate ligand for CCR4 (peprotech), positive control (protein)
chain: ARGTNVGRECCLEYFKGAIPLRKLKTWYQTSEDCSRDAIVFVTVQGRAICSDPNNKRVKNAVKYLQSLERS
[6]
  internalization of CCR4-EGFP: internalization of chemokine receptors induced by TARC
[1]; CCR4-transfected HEK293 cells treated with 100 ng/ml PTX at 37° C. for 30 min
  chemotaxis induced after PTX pretreatment: completely abolished by PTX
[1]; HEK293/CCR4, pretreatment TARC or 2 μg/ml C27 or C19, 37° C., 30 min
  desensitization of the receptor to subsequent stimulation with TARC, C27 or C19 (chemotaxis): could desensitize the receptor
[7]; CCR4-transfected HEK293 cells, 167 nM C27 or C19, 100 nM TARC
  calcium flux: induced calcium flux
[7]; CCR4 transfectants, pretreatment with 100 nM TARC
  desensitization of the receptor to subsequent stimulation with C27 and C19: desensitized the receptor
